Source: patent US20130116412

How the values were obtained:
Ac-GFPG-NH2 = test system: T1, Ac-GFPG-NH2
T1 sequence: GFPG

[1] = test system: GST-(PPG)5, fusion of glutathione S-transferase and (Pro-Pro-Gly)5 with an intervening thrombin cleavage site
GST-(PPG)5, fusion of glutathione S-transferase and (Pro-Pro-Gly)5 with an intervening thrombin cleavage site, sequence (chain, as listed by the source): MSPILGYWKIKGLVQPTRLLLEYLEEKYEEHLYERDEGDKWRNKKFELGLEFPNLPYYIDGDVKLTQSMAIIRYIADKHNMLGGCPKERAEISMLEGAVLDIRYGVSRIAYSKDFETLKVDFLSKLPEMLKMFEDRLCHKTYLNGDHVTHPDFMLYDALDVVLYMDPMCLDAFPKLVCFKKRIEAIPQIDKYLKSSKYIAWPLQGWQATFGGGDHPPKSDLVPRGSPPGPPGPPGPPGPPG

## human prolyl-4-hydroxylase (P4H), full-length tetramer produced from plasmid pBK1.PDI1.P4H7
Ac-GFPG-NH2
  in vitro hydroxylation of proline, MALDI-TOF / LC-MS: The positive control showed that the proline residue in Ac-GFPG-NH2 was hydroxylated.
[1]
  in vitro hydroxylation of proline residues, MALDI-TOF of the cleaved peptide: up to 3 hydroxyproline residues were produced in the (PPG)5 peptide after incubation with P4H
